Test results taken from article PMC10175749.
Changes are numbered by the printed parent chain. Names may count otherwise.

B1: RcFPPS2 (Rosa chinensis) (protein)
chain: MSNLRAKFMEVYSVLKSELINDPAFEFTDVSRQWIERMLDYNVPGGKLNRGLSVVDSFKLLKEGRELTDEEVFQSCALGWCIEWLQAYFLVLDDIMDGSHTRRGQPCWFRQPKIGMIAANDGIILRNHIPRILKNHFRVMPYYVDLLDLFNEVEFQTAHGQMIDLITTHEGEKDLSKYSLEIHRRIVQYKTAYYSFYLPVACALVMAGKNVESHADVKNILIEMGTYFQVQDDYLDCFGDPEVIGKVGTDIQDFKCSWMVVKALELSNEEQKKLLHENYGKDDQECIAKVKELYNVLDLQGVFTEYESSSYDKLTKSIEAHPSKAVQAVLKSFLAKIYKRQK
B2: RcG/FPPS1 (Rosa chinensis; F88Y) (protein)
chain: MADLKSKFLNVYSVLKSELLEDPAFEFTDASRQWVERMLDYNVPGGKLNRGLSVIDSYQLLQQGRELTEDEIFQASALGWCIEWLQAYFLVLDDMMDGSHTRRGQPCWFRLPKVGLIAANDGVLLRNHIPRILKKHFRQKPYYVDLVDLFNEVEFQTASGQLIDLITTIDGEKDLSKYSLSIHRRIVQYKTAYYSFYLSVACALLMSGEELDKHIDVKNLLVDMGIYFQVQDDYLDCFGDPETIGKIGTDIEDFKCSWLVVKALELSNEEQKKILHENYGNPDPAKVAKVKALYKELDLQGVFAEYERQSYEKLISSIEAHPSKAVQEVLKSFLGKIYKRKK
B3: RcG/FPPS1 (Rosa chinensis; V123I) (protein)
chain: B2 chain with Y88F, V123I
B4: RcG/FPPS1 (Rosa chinensis; F88Y/V123I) (protein)
chain: B2 chain with V123I
B5: RcG/FPPS1 (Rosa chinensis) (protein)
chain: B2 chain with Y88F

Substrate: C=C(C)CCO[P@@](=O)(O)OP(=O)(O)O
Assay: purified protein
Conditions: IPP 0.5-50 µM
[1] = co-substrate GPP 60 µM, FPP formation

Row | Protein | Km [1] [µM] | Km (co-substrate DMAPP 60 µM, GPP formation) [µM]
1 | B1 | 13.1 ± 3.4 | –
2 | B2 | 9.08 ± 0.74 | –
3 | B3 | 14.74 ± 1.94 | –
4 | B4 | 12.78 ± 3.07 | –
5 | B5 | – | 0.44 ± 0.03
